# Test results reported in patent US10450368.
# Tests used:
# [1] = molecular target: HIV-1 CH505 transmitted/founder gp120 Env (HIV-1); experiment: competition ELISA, blocking of CH106 binding to CH505 TF gp120 (self)
# [2] = molecular target: CH505.TF mutant gp120 M8 (HIV-1); experiment: direct-binding ELISA
# [3] = molecular target: CH505.M10D8gp120; experiment: direct-binding ELISA
# [4] = molecular target: CH505.M9D8gp120/293F; experiment: direct-binding ELISA
# [5] = molecular target: CH505_w137V201B12.D11gp120 (HIV-1); experiment: direct-binding ELISA
# [6] = molecular target: CH505.M21D8gp120/293F; experiment: direct-binding ELISA
# [7] = molecular target: CH505w136.B4D8gp120 (HIV-1); experiment: direct-binding ELISA
# [8] = molecular target: Scl-70 (UniProt P11387); experiment: AtheNA, Ab 6.25 ug/ml
# [9] = molecular target: RNP (ribonucleoprotein); experiment: AtheNA, Ab 6.25 ug/ml
# [10] = molecular target: Histones; experiment: AtheNA, Ab 6.25 ug/ml
# [11] = molecular target: Jo-1 (UniProt P12081); experiment: AtheNA, Ab 6.25 ug/ml
# [12] = molecular target: SSA; experiment: AtheNA, Ab 6.25 ug/ml
# [13] = molecular target: Centromere B (UniProt P07199); experiment: AtheNA, Ab 6.25 ug/ml
# [14] = molecular target: Sm (Smith antigen); experiment: AtheNA, Ab 6.25 ug/ml
# [15] = molecular target: SSB (UniProt P05455); experiment: AtheNA, Ab 6.25 ug/ml
# [16] = molecular target: HIV-1 CH505 transmitted/founder gp120 Env (HIV-1); experiment: competition ELISA; competitor biotinylated CH240 on CH505 TF gp120
# [17] = molecular target: CH0505_CON D7gp120/293i; experiment: ELISA
# [18] = molecular target: CH505.w30.12D8gp120; experiment: ELISA
# [19] = molecular target: CH505w020.14D8gp120; experiment: ELISA
# [20] = molecular target: CH505w030.20D8gp120/293F; experiment: ELISA
# Scl-70, sequence (P11387 whole entry): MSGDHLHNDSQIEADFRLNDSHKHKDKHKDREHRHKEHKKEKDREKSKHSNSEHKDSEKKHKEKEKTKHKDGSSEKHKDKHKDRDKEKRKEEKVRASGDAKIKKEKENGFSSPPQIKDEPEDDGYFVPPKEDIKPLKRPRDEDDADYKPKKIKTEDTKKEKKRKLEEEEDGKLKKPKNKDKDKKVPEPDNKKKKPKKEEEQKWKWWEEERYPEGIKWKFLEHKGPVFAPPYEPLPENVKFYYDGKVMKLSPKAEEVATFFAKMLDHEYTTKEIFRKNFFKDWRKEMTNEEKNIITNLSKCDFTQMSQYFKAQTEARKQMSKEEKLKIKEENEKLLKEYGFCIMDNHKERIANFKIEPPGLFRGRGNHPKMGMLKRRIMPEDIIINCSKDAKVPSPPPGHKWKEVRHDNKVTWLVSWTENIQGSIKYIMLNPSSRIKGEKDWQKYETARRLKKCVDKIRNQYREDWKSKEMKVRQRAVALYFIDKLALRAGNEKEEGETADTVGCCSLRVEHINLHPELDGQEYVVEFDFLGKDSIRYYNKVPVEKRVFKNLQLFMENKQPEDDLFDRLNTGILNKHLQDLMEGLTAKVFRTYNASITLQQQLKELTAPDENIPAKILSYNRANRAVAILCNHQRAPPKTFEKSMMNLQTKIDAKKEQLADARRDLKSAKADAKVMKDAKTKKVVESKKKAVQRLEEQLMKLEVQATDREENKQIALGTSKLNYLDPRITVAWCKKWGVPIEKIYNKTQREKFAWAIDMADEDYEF
# SSB, sequence (P05455 whole entry): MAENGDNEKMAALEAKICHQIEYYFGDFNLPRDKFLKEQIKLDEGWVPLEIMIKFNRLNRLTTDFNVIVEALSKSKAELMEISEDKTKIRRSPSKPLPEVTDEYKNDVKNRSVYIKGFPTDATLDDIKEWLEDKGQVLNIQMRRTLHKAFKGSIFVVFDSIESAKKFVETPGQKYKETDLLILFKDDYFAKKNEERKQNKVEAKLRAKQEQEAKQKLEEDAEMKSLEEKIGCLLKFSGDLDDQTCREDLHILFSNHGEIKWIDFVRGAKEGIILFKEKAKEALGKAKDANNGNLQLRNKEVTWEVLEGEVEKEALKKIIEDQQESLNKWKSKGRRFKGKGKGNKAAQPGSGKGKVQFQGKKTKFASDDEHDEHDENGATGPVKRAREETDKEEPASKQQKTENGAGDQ
# Centromere B, sequence (P07199 whole entry): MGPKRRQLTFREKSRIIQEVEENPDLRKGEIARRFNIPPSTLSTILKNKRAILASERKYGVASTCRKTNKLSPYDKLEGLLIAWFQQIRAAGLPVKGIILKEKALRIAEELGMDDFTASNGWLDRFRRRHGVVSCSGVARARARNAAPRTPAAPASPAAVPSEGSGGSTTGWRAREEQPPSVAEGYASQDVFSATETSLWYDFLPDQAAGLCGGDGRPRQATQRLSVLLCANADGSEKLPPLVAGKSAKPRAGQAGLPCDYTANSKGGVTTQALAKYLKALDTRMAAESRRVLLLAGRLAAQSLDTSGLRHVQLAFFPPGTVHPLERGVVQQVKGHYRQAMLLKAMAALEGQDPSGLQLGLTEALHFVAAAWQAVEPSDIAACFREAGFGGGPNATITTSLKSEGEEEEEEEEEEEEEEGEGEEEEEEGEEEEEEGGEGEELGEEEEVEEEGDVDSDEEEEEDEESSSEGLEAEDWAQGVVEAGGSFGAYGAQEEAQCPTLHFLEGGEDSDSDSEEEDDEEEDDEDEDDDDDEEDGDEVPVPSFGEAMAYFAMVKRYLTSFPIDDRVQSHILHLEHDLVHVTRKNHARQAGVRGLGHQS
# Jo-1, sequence (P12081 whole entry): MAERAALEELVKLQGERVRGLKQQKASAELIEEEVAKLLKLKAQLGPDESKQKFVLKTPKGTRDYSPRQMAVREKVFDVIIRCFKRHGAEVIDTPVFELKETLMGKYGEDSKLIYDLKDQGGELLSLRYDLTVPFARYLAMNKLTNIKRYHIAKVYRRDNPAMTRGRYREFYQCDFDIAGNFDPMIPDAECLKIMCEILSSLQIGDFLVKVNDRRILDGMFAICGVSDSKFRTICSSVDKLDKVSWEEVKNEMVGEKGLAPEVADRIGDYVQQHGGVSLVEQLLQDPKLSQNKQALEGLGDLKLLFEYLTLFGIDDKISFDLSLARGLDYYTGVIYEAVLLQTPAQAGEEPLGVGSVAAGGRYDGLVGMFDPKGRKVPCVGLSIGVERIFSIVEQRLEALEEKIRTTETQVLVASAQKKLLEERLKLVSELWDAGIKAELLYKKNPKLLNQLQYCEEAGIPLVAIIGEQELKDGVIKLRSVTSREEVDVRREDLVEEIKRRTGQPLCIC
substance,measurement,setting,value
CH106 (antibody),IC50,[1],2.5 µg/mL
same,LogAUC,[2],10.2
same,LogAUC,[3],11.8
same,LogAUC,[4],11
same,LogAUC,[5],12.5
same,LogAUC,[6],11.5
same,LogAUC,[7],11.8
same,AtheNA signal (relative luminescence units),[8],2
same,AtheNA signal (relative luminescence units),[9],1
same,AtheNA signal (relative luminescence units),[10],2
same,AtheNA signal (relative luminescence units),[11],4
same,AtheNA signal (relative luminescence units),[12],10
same,AtheNA signal (relative luminescence units),[13],1
same,AtheNA signal (relative luminescence units),[14],5
same,AtheNA signal (relative luminescence units),[15],6
same,IC50,[16],2.3 µg/mL
same,LogAUC,[17],11.9
same,LogAUC,[18],11.8
same,LogAUC,[19],11.2
same,LogAUC,[20],7.25
